{"source": "paper PMC3173232", "binders": {"B1": {"name": "40-bp DNA (dsDNA)", "DNA 1": "GGATACACAACAGACCGCAACACTCAGATTACTTTTCGCC", "DNA 2": "GGCGAAAAGTAATCTGAGTGTTGCGGTCTGTTGTGTATCC"}}, "key": {"XRCC4 FL": {"molecular_target": "XRCC4 FL (Homo sapiens, UniProt Q13426 1-336)", "sequence (Q13426 whole entry)": "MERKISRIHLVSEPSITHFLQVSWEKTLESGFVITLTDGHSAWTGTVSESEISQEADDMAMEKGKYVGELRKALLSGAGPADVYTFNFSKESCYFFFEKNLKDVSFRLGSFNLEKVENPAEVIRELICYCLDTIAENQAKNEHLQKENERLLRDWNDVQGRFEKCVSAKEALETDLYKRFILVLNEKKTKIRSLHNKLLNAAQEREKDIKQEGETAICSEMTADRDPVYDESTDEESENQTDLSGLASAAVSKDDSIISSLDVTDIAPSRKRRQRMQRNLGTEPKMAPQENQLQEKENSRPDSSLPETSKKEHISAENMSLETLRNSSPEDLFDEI", "test": "tryptophan fluorescence quenching"}, "XLF(1-248)": {"molecular_target": "XLF(1-248) (Homo sapiens, UniProt Q9H9Q4 1-248)", "sequence (Q9H9Q4 1-248)": "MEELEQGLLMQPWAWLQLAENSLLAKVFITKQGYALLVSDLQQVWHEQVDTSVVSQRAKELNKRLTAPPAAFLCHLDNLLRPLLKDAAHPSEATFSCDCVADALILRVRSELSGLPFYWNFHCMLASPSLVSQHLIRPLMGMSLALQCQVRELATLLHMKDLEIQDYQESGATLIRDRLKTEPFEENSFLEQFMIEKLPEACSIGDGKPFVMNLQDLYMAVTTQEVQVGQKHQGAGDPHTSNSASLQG", "test": "tryptophan fluorescence quenching"}, "XLF FL": {"molecular_target": "XLF FL (Homo sapiens, UniProt Q9H9Q4 1-299)", "sequence (Q9H9Q4 whole entry)": "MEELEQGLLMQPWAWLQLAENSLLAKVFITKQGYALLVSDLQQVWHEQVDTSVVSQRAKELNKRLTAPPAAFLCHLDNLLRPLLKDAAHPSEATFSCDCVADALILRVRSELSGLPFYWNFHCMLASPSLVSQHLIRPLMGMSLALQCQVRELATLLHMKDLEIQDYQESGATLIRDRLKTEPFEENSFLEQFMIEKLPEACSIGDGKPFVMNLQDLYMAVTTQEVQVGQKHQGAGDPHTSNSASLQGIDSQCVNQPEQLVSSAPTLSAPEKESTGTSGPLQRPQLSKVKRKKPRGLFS", "test": "tryptophan fluorescence quenching"}, "XLF FL;XRCC4(1-140)": {"molecular_target": "XLF FL;XRCC4(1-140) (Homo sapiens;Homo sapiens, UniProt Q9H9Q4;Q13426 1-299;1-140, |)", "sequence (Q9H9Q4 whole entry, chain 1 of 2)": "as the sequence (Q9H9Q4 whole entry) above", "sequence (Q13426 1-140, chain 2 of 2)": "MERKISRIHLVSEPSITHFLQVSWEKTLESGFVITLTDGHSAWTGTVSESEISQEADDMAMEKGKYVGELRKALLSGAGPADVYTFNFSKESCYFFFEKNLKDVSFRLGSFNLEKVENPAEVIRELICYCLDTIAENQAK", "test": "SAXS titration"}, "XLF(1-224);XRCC4(1-140)": {"molecular_target": "XLF(1-224);XRCC4(1-140) (Homo sapiens;Homo sapiens, UniProt Q9H9Q4;Q13426 1-224;1-140, |)", "sequence (Q9H9Q4 1-224, chain 1 of 2)": "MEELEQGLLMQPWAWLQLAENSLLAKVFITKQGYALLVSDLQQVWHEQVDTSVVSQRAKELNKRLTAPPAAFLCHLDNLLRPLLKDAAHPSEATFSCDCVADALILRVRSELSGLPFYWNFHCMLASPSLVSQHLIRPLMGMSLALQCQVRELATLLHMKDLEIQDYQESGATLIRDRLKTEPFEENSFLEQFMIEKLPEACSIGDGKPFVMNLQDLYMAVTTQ", "sequence (Q13426 1-140, chain 2 of 2)": "as the sequence (Q13426 1-140, chain 2 of 2) above", "test": "SAXS titration"}, "XRCC4 FL;XLF(1-248)": {"molecular_target": "XRCC4 FL;XLF(1-248) (Homo sapiens;Homo sapiens, UniProt Q13426;Q9H9Q4 1-336;1-248, |)", "sequence (Q13426 whole entry, chain 1 of 2)": "as the sequence (Q13426 whole entry) above", "sequence (Q9H9Q4 1-248, chain 2 of 2)": "as the sequence (Q9H9Q4 1-248) above", "test": "tryptophan fluorescence quenching"}, "[1]": {"molecular_target": "Ku70/80 heterodimer;XLF FL;XRCC4(1-140) (Homo sapiens (HeLa);Homo sapiens;Homo …, UniProt P12956;P13010;Q9H9Q4;Q13426 2-609;2-732;1-299;1-140, ||)", "sequence (P12956 2-609, chain 1 of 4)": "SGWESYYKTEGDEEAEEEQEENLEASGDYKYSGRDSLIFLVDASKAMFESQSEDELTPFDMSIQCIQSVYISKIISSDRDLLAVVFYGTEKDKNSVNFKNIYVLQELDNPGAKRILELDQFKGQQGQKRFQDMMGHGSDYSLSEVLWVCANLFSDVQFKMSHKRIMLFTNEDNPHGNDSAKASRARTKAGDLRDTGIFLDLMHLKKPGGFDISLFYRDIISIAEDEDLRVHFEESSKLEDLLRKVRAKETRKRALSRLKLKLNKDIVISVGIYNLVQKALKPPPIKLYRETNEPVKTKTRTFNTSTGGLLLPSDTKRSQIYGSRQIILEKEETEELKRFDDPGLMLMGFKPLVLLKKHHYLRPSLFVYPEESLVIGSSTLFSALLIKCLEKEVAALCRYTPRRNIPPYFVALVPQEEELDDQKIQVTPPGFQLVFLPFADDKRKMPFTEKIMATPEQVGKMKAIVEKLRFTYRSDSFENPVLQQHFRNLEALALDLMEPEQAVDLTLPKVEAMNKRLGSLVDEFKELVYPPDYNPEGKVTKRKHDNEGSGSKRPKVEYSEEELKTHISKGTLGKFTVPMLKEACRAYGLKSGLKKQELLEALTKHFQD", "sequence (P13010 2-732, chain 2 of 4)": "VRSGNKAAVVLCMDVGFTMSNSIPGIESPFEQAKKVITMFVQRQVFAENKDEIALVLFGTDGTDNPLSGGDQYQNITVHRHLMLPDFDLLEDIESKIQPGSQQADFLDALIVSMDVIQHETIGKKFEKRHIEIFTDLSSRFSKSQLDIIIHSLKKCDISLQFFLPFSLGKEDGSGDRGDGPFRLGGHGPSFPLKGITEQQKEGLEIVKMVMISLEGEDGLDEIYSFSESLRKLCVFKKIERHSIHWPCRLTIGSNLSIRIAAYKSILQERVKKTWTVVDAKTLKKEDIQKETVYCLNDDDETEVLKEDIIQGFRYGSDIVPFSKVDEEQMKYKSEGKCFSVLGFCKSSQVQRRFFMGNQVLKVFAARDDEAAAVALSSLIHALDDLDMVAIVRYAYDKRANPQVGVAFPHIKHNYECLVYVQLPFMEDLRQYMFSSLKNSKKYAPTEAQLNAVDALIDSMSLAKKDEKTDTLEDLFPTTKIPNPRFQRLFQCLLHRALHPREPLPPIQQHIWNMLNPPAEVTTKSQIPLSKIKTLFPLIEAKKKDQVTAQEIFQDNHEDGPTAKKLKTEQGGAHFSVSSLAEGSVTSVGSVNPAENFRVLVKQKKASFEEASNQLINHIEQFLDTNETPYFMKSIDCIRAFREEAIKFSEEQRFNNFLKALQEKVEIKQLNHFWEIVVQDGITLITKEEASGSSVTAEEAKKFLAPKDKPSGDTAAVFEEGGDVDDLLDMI", "sequence (Q9H9Q4 whole entry, chain 3 of 4)": "as the sequence (Q9H9Q4 whole entry) above", "sequence (Q13426 1-140, chain 4 of 4)": "as the sequence (Q13426 1-140, chain 2 of 2) above", "test": "SEC co-elution and SAXS"}}, "data": [{"binder": "B1", "values": [{"measurement": "Kd", "setting": "XRCC4 FL", "value": "0.95 ± 0.05", "unit": "µM"}, {"measurement": "Kd", "setting": "XLF(1-248)", "value": "2.9 ± 0.2", "unit": "µM"}, {"measurement": "Kd", "setting": "XLF FL", "value": "1.6 ± 0.1", "unit": "µM"}, {"measurement": "binding result", "setting": "XLF FL;XRCC4(1-140)", "value": "binds"}, {"measurement": "binding result", "setting": "XLF(1-224);XRCC4(1-140)", "value": "binds"}, {"measurement": "Kd", "setting": "XRCC4 FL;XLF(1-248)", "value": "0.7 ± 0.05", "unit": "µM"}, {"measurement": "binding result", "setting": "[1]", "value": "binds"}]}]}
